# Read-outs that look alike come from different tables or passages of the source.
# Key:
# [1] = biological target: T1, STING C-terminal region (hSTING-C) (human, UniProt Q86WV6 152-379); assay: fluorescence anisotropy
# STING C-terminal region [2] = biological target: T2, STING C-terminal region (UniProt Q86WV6 181-379); assay: SPR
# STING C-terminal region [3] = biological target: T2, STING C-terminal region; assay: pull-down
# [4] = biological target: T1, STING C-terminal region (hSTING-C); assay: fluorescence anisotropy; remark: listed apart in the source
# T1 sequence (Q86WV6 152-379): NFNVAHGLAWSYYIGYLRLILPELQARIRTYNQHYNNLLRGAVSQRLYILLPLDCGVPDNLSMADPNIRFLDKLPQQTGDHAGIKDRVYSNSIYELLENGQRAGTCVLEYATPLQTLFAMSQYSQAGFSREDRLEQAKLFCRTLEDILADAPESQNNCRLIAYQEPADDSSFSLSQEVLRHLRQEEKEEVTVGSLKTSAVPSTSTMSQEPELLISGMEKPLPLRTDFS
# T2 sequence (Q86WV6 181-379): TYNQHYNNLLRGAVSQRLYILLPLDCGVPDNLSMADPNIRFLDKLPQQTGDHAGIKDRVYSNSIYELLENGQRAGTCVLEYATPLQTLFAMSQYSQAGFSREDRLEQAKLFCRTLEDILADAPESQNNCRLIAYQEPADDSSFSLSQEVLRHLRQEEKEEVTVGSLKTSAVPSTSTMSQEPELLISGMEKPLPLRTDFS
binder,measurement,setting,value
dsDNA 18-mer (dsDNA) DNA 1: TACAGATCTACTAGTGAT DNA 2: ATCACTAGTAGATCTGTA,Kd,[1],337 ± 26 µM
dsDNA90 (dsDNA) DNA 1: TACAGATCTACTAGTGATCTATGACTGATCTGTACATGATCTACATACAGATCTACTAGTGATCTATGACTGATCTGTACATGATCTACA DNA 2: TGTAGATCATGTACAGATCAGTCATAGATCACTAGTAGATCTGTATGTAGATCATGTACAGATCAGTCATAGATCACTAGTAGATCTGTA,Kd,STING C-terminal region [2],13.7 µM
ssDNA90 (ssDNA) DNA: TACAGATCTACTAGTGATCTATGACTGATCTGTACATGATCTACATACAGATCTACTAGTGATCTATGACTGATCTGTACATGATCTACA,binding result,STING C-terminal region [3],binds
dsDNA 30-mer (dsDNA) DNA 1: TACAGATCTACTAGTGATCTATGACTGATC DNA 2: GATCAGTCATAGATCACTAGTAGATCTGTA,Kd,[4],247 ± 38 µM
